Experimental data from the supplement of paper PMC10126150.
± gives the standard deviation of the averaged measurements.
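Note: ATP exposure 15 min at 22 °C before imaging.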

Each sequence was assayed on ATP (assay: switch fluorescence ratio, 500 uM ATP over buffer (Cy3 cluster intensity, sum of 5 cycles each) (fold (ratio)); higher = stronger signal-on switching upon ATP binding; sequences stand for … in TCGTCGGCAGCGTCAGATGTGTATAAGAGACAGTTTTTTTTTTTTTTTTTTTTTTTTT…TC). Details: aptamer strand: ATP DNA aptamer (quencher-CACCTGGGGGAGTATTGCGGAGGAAGG + anchor), 100 nM annealed; ATP concentration: 500 uM.
How it was run: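 The fluorescence ratio divides summed target-cycle Cy3 intensity by summed buffer-cycle Cy3 intensity for each cluster and is averaged per switch-domain sequence. Cy3-labelled switching-strand clusters on a modified Illumina MiSeq flow-cell were annealed to 100 nM quencher-labelled ATP aptamer, then imaged in selection buffer and again after 15 min with 500 uM ATP at 22 °C. Five such cycles were run, with NaOH stripping and re-annealing between them, and clusters outside 100-1000 RFU were excluded.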
In the case of TGTGGTATAT, the switch fluorescence ratio is reported as 0.993 ± 0.024. GACTTAGTGT gave a switch fluorescence ratio of 1.012 ± 0.0036. Work on GCGACATGAT yielded a switch fluorescence ratio of 1.025 ± 0.0011. Sequence GGCTTTTGTG has a switch fluorescence ratio of 0.974 ± 0.036. In the case of TTCAAGGCGG, the switch fluorescence ratio is reported as 1.01 ± 0.014. Work on AGAAAAACCG yielded a switch fluorescence ratio of 1.05 ± 0.052. GAATGGTTTT showed a switch fluorescence ratio of 0.971 ± 0.084. For TTTTACGCAC, the switch fluorescence ratio was 1.81 ± 0.024. CGTTTGGGAG showed a switch fluorescence ratio of 0.9739 ± 0.0061. For CTTTAACGGT, the switch fluorescence ratio was 1 ± 0.026. Work on TGGGTTTACG yielded a switch fluorescence ratio of 1.03 ± 0.029. With GCGTCCACGG the switch fluorescence ratio was 1.017 ± 0.01. Work on GCTTGTTTTT yielded a switch fluorescence ratio of 0.997 ± 0.018. Sequence ATCCTCTTGC has a switch fluorescence ratio of 1.09 ± 0.036. For ATTTCGGGTT, the switch fluorescence ratio was 1.11 ± 0.28. For AATGGTTTGT, the switch fluorescence ratio was 0.999 ± 0.025. TCAAATTTTG gave a switch fluorescence ratio of 0.999 ± 0.021. For TGTGCTTTGT, the switch fluorescence ratio was 1 ± 0.016. TTGGGTCAGA was tested, and the switch fluorescence ratio was 0.981 ± 0.018. In the case of GTGATAAATG, the switch fluorescence ratio is reported as 0.956 ± 0.021. ATAGAATTTA was tested, and the switch fluorescence ratio was 0.956 ± 0.024. CTGTTATGTG gave a switch fluorescence ratio of 0.952 ± 0.015. GAGAAAAGGG was tested, and the switch fluorescence ratio was 1.04 ± 0.037. Work on TGTCTCGCCC yielded a switch fluorescence ratio of 1.02 ± 0.024. Work on ACCTGTAATA yielded a switch fluorescence ratio of 1.05 ± 0.0062. AGCGCGAATG showed a switch fluorescence ratio of 1.01 ± 0.018. In the case of AAGTGAGGCA, the switch fluorescence ratio is reported as 0.963 ± 0.06. Sequence TCCCATCTGT has a switch fluorescence ratio of 0.984 ± 0.031. Sequence GGTCAAACCC has a switch fluorescence ratio of 1.032 ± 0.0044. TGCGGGGGG was tested, and the switch fluorescence ratio was 0.9855 ± 0.0037. GGTATTTTAA showed a switch fluorescence ratio of 1.04 ± 0.027. CCAAGGCTTT gave a switch fluorescence ratio of 1.03 ± 0.026. AATCCGTTTT showed a switch fluorescence ratio of 1.04 ± 0.044. AGGTTTTTCG showed a switch fluorescence ratio of 1.03 ± 0.03. Work on GCTGGACTTG yielded a switch fluorescence ratio of 0.998 ± 0.053. TGGAGTGTTC showed a switch fluorescence ratio of 1.06 ± 0.011. Sequence ATATATTTTG has a switch fluorescence ratio of 0.972 ± 0.03. In the case of TTCCTGGTCA, the switch fluorescence ratio is reported as 0.997 ± 0.012. AAAATTATC gave a switch fluorescence ratio of 0.997 ± 0.019. With GGGTGTAATC the switch fluorescence ratio was 1.01 ± 0.024. TTGGGGTGGG gave a switch fluorescence ratio of 1.01 ± 0.046. In the case of CGATGCACGG, the switch fluorescence ratio is reported as 1.106 ± 0.0049. TGGCAGAGGG was tested, and the switch fluorescence ratio was 1 ± 0.044. TATTCACAAG gave a switch fluorescence ratio of 1.024 ± 0.0027. Sequence ACGTTTTTAG has a switch fluorescence ratio of 1 ± 0.013. Sequence TGGGAGAGTG has a switch fluorescence ratio of 0.994 ± 0.0055. CTAAGGCGAT was tested, and the switch fluorescence ratio was 1.06 ± 0.12. GTAATTCGGG was tested, and the switch fluorescence ratio was 0.9809 ± 0.0073. With TTAGTGGGGT the switch fluorescence ratio was 1.01 ± 0.028. CACAGTGGTA showed a switch fluorescence ratio of 1.03 ± 0.058. ATCATGGGGT gave a switch fluorescence ratio of 0.984 ± 0.041. TAAAGTATTT showed a switch fluorescence ratio of 1.04 ± 0.073. With ATTGGGCGCT the switch fluorescence ratio was 0.99269 ± 2.5e-05. TATTAGCAGC gave a switch fluorescence ratio of 1.03 ± 0.012. CCTGATAGCG showed a switch fluorescence ratio of 1.05 ± 0.03. Work on GCTTTTTGTA yielded a switch fluorescence ratio of 0.981 ± 0.032. Work on TGGAGCCTGG yielded a switch fluorescence ratio of 0.984 ± 0.021. Sequence AGATTAGGCA has a switch fluorescence ratio of 0.992 ± 0.013. AATTATCCTT was tested, and the switch fluorescence ratio was 1.07 ± 0.037. Work on GACGGGGCTA yielded a switch fluorescence ratio of 1.01 ± 0.023. Work on TTGGCCGCGA yielded a switch fluorescence ratio of 2.1 ± 0.066. For AGAAGTTAGG, the switch fluorescence ratio was 0.973 ± 0.013. Sequence TTGACGAATC has a switch fluorescence ratio of 1.067 ± 0.002. Sequence ATTTAGCGTC has a switch fluorescence ratio of 0.99 ± 0.016. GCGCAGTACG gave a switch fluorescence ratio of 4.91 ± 0.71. For GGCGGCGCTG, the switch fluorescence ratio was 1.03 ± 0.028. In the case of CAGGTAGTGT, the switch fluorescence ratio is reported as 1.02 ± 0.024. For TGAAAAAGAT, the switch fluorescence ratio was 0.989 ± 0.028. GACTTGGGTG showed a switch fluorescence ratio of 1.02 ± 0.038. Sequence ATGCAATGGC has a switch fluorescence ratio of 1.437 ± 0.012. Work on GGTTGTTTTT yielded a switch fluorescence ratio of 1.01 ± 0.032. With AGGTCATCGA the switch fluorescence ratio was 1.004 ± 0.0064. ATGTATCATA was tested, and the switch fluorescence ratio was 0.993 ± 0.025. TTTTATAATA gave a switch fluorescence ratio of 1.05 ± 0.034. ATTGGCTTTA gave a switch fluorescence ratio of 1.004 ± 0.0034. Work on ACTTTGCGGT yielded a switch fluorescence ratio of 1.078 ± 0.0015. With TTGGAGCACT the switch fluorescence ratio was 1.38 ± 0.075. Sequence ATTGGTGACG has a switch fluorescence ratio of 1.02 ± 0.047. Sequence AAGGAAATAG has a switch fluorescence ratio of 0.969 ± 0.0021. Work on ATATTTGACA yielded a switch fluorescence ratio of 1.01 ± 0.026. Work on TATTATTCTG yielded a switch fluorescence ratio of 0.986 ± 0.023. For GTTAGGGGGT, the switch fluorescence ratio was 0.994 ± 0.027. AGTCCGGGTA gave a switch fluorescence ratio of 1.08 ± 0.17. GCAGGAATGT gave a switch fluorescence ratio of 1.0036 ± 0.00065. In the case of GTGTAAGCAG, the switch fluorescence ratio is reported as 0.995 ± 0.01. For TACTGAGCAT, the switch fluorescence ratio was 1.24 ± 0.086. Work on AAAGTTTCGC yielded a switch fluorescence ratio of 1 ± 0.019. Sequence TGCTTGTGGG has a switch fluorescence ratio of 1.026 ± 0.0015. In the case of GGCCCGTACT, the switch fluorescence ratio is reported as 1.04 ± 0.042. For AGGGTCTCGT, the switch fluorescence ratio was 1.009 ± 0.0025. Sequence GAGTTTTGAA has a switch fluorescence ratio of 0.997 ± 0.018. Sequence ACGGAATTGT has a switch fluorescence ratio of 1.07 ± 0.029. In the case of AATTAGTATG, the switch fluorescence ratio is reported as 0.999 ± 0.014. ATGGTGAGGC showed a switch fluorescence ratio of 0.95 ± 0.018. With TTGTTGGGGC the switch fluorescence ratio was 1.02 ± 0.035. Work on TGAGCGGGAA yielded a switch fluorescence ratio of 1.01 ± 0.02. With AGATTTGCTA the switch fluorescence ratio was 1.004 ± 0.0078. CATGAGACCG gave a switch fluorescence ratio of 1.03 ± 0.016. TTAGAGAAGT was tested, and the switch fluorescence ratio was 0.987 ± 0.019. AGGGTAGGGT was tested, and the switch fluorescence ratio was 1.01 ± 0.033. For CTGGGGGGGG, the switch fluorescence ratio was 1 ± 0.038. With CAATAGAGAG the switch fluorescence ratio was 0.997 ± 0.024. For AGGGCGCCCG, the switch fluorescence ratio was 0.9884 ± 0.0023. GGCTTTATTC was tested, and the switch fluorescence ratio was 0.984 ± 0.044. In the case of AAAAGGAGTT, the switch fluorescence ratio is reported as 0.998 ± 0.016. For CCGTCTACTG, the switch fluorescence ratio was 1.04 ± 0.013. Work on CAGATTTAAG yielded a switch fluorescence ratio of 0.994 ± 0.017. For CCCAATGATC, the switch fluorescence ratio was 1.52 ± 0.043. For GTTGACTTGA, the switch fluorescence ratio was 1.02 ± 0.03. With GTGGGGGGTC the switch fluorescence ratio was 1.01 ± 0.062. TTCAATGTCG gave a switch fluorescence ratio of 1.05 ± 0.024. TGGGTGAGCT gave a switch fluorescence ratio of 1.01 ± 0.036. GCCTTTGTAA gave a switch fluorescence ratio of 1.09 ± 0.056. With CGGATAATTG the switch fluorescence ratio was 0.9886 ± 0.0054. CGACGTATTG showed a switch fluorescence ratio of 1.02 ± 0.03. GGGGTTGGGT showed a switch fluorescence ratio of 1.03 ± 0.026. With CTGGGGGTTC the switch fluorescence ratio was 1.01 ± 0.018. TAGGCTTTAA was tested, and the switch fluorescence ratio was 0.976 ± 0.011. For GCGTTGAGGA, the switch fluorescence ratio was 1.04 ± 0.08. TATAAAGGGC gave a switch fluorescence ratio of 1.01 ± 0.054. GAAAGGGGGC showed a switch fluorescence ratio of 0.963 ± 0.041. For ATGTTTTGCT, the switch fluorescence ratio was 0.965 ± 0.029. Sequence GGAATTATAA has a switch fluorescence ratio of 0.99 ± 0.027. CGGGGTACGG showed a switch fluorescence ratio of 1.01 ± 0.017. Sequence TTTATCGGGA has a switch fluorescence ratio of 0.978 ± 0.017. TTTTTTCATC was tested, and the switch fluorescence ratio was 1.031 ± 0.0078. TTTTAAAACG was tested, and the switch fluorescence ratio was 1.04 ± 0.084. AGAGGGGCGG gave a switch fluorescence ratio of 1 ± 0.016. Work on TACAGAGATT yielded a switch fluorescence ratio of 0.9778 ± 0.0084. TGGCTTAGGA showed a switch fluorescence ratio of 0.979 ± 0.012. In the case of GTTATAGGGG, the switch fluorescence ratio is reported as 0.99 ± 0.018. Work on CTATCCGTGC yielded a switch fluorescence ratio of 1.287 ± 0.0028. Sequence ACACGTACTT has a switch fluorescence ratio of 1.52 ± 0.065. In the case of CATCTATCCG, the switch fluorescence ratio is reported as 0.963 ± 0.012. GGAGGATTTA gave a switch fluorescence ratio of 0.984 ± 0.042. GGGGGGTCTT gave a switch fluorescence ratio of 1.01 ± 0.025. GAGCTGGGGA gave a switch fluorescence ratio of 0.983 ± 0.012. AGTTTTAAGC showed a switch fluorescence ratio of 1.01 ± 0.043. Work on TCCATTTTGG yielded a switch fluorescence ratio of 0.998 ± 0.039. AGGGTCTAGA gave a switch fluorescence ratio of 0.978 ± 0.023. In the case of TCATGACGGT, the switch fluorescence ratio is reported as 1.011 ± 0.0028. For GGGGAGGGCG, the switch fluorescence ratio was 0.967 ± 0.034. ACACTCAGAG gave a switch fluorescence ratio of 1.019 ± 0.004. GGAAAATAAT showed a switch fluorescence ratio of 1.01 ± 0.035. AGGTTTTGAT showed a switch fluorescence ratio of 1.01 ± 0.019. With GAGGACTTAG the switch fluorescence ratio was 0.989 ± 0.022. Work on GGGTTTGTTT yielded a switch fluorescence ratio of 1.02 ± 0.046. For GCTTAGGGGG, the switch fluorescence ratio was 1.031 ± 0.0069. TCGTGTATGA gave a switch fluorescence ratio of 1.036 ± 0.0059. Sequence TGGCGCCGGG has a switch fluorescence ratio of 0.9958 ± 0.0091. CTTTGAATTG showed a switch fluorescence ratio of 0.987 ± 0.023. ACACTGGGCA was tested, and the switch fluorescence ratio was 1.022 ± 0.0053. TATAACATAT was tested, and the switch fluorescence ratio was 1.03 ± 0.041. GGACGGGGGC gave a switch fluorescence ratio of 1 ± 0.016. Sequence GGTCCCAAAA has a switch fluorescence ratio of 0.981 ± 0.032. With ACGGGGGATT the switch fluorescence ratio was 1.03 ± 0.034. In the case of GGATTGGGCG, the switch fluorescence ratio is reported as 0.986 ± 0.026.
